Data: patent publication US20220175920A1
Several values for one entry are separate records, joined by “and”; a condition that tells them apart may be missing. Identical values can stand only once.

Experiments:
[1] = target: human CD40 on cells (B cells, MDDCs, stably transfected CHO cells) (human) (UniProt P25942); assay: cell-based or functional assay
[2] = target: human CD40 ectodomain human Fc fusion protein (human) (UniProt P25942); assay: competition flow cytometry: mouse mAb titrated into 2 ug/ml human CD40 ectodomain-human Fc, 1 h on ice, then added to human CD40L-transfected L cells; cell-bound CD40-Fc detected with anti-IgG-PE; blocked ligand: CD40L on L cells [left panel]
human CD40 ectodomain human Fc fusion protein (human), sequence (P25942 21-193): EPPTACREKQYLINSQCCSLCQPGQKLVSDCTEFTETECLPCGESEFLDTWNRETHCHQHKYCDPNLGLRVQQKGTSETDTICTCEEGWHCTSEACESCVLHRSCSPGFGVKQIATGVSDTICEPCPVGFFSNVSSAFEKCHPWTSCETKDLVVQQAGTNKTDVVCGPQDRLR

human CD40 on cells (B cells, MDDCs, stably transfected CHO cells) (human), sequence (P25942 21-277): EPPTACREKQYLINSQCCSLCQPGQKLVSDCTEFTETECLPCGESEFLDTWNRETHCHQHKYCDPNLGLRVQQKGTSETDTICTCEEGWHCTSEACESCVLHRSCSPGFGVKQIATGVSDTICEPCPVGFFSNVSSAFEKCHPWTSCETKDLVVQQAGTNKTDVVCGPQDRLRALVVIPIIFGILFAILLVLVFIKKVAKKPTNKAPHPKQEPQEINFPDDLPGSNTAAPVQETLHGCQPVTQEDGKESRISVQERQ

With MEGACD40L (Mega sCD40L) (ligand) the EC50 (nM) IL-12 p40, MDDC secretion [1] was > 1 nM and < 10 nM, the EC50 (nM) IL-15, MDDC secretion [1] was > 1 nM and < 10 nM and the EC50 (nM) TNFα, MDDC secretion [1] was > 1 nM and < 10 nM. For the same substance, the EC50/11B6-CD40L, IL-12 p40 [1] was 100, the EC50/11B6-CD40L, IL-15 [1] was 100 and the EC50/11B6-CD40L, TNFα [1] was 100.

In the case of “human IgG4 control mAb with CD40L fused to the L chain”, the EC50 (nM) B cell: 50% of maximum B cell proliferation (FIG. 10B) [1] is reported as over 10 nM and the fold less active in inducing B cell proliferation than the 11B6 and 12B4-CD40L fusion proteins [1] is reported as 10 fold.

Substance 12E12 (antibody) has an IC50 (read off the curve) [2] of 0.1 µg/mL.
